This experiment concerns the target Taq DNA polymerase (Thermus aquaticus) (UniProt P19821). The experiment can be described thus: cell-based or functional assay.

Where only a bound is given, the exact number is not on record here.

Chain of UniProt P19821 (P19821 whole entry): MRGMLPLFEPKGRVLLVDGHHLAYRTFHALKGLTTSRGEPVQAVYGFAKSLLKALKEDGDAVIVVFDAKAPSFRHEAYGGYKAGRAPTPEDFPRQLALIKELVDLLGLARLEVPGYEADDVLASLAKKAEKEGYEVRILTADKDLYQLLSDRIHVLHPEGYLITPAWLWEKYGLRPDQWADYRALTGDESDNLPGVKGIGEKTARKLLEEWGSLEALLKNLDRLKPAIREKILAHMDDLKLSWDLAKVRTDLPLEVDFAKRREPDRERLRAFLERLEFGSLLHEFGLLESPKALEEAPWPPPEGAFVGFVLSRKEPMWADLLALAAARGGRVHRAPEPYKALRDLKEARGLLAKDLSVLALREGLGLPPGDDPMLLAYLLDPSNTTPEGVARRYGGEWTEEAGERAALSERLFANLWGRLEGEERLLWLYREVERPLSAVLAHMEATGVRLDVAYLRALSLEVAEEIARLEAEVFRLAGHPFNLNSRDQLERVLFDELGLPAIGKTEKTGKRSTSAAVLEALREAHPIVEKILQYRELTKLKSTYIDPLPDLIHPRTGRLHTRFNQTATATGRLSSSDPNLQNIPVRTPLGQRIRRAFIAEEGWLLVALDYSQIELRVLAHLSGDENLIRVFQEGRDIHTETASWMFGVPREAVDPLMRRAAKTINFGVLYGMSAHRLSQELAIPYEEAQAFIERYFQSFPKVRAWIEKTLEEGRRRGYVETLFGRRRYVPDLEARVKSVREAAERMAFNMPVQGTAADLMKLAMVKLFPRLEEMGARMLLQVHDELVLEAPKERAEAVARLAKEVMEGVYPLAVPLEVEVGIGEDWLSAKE

JumpStart Antibody (Sigma Aldrich) displayed a reactivation time of Taq DNA polymerase at 95 C in real-time PCR below 0.5 min.

For the origin of these results see patent US20180298422A1.
